Reference: patent US11278600B2, “Human alpha-galactosidase variants” (Codexis, Inc., priority 2014, dated 2022)

Experiments:
Assay type in all cases: biochemical
[1] = HTP-analysis of yeast culture supernatants, no challenge (MUGal hydrolysis); details: activity of the variant/activity of WT GLA (SEQ ID NO: 5), yeast supernatant
Method in brief: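 GLA variants were expressed in INVSc1 yeast grown in SD-Ura broth with glucose at 30° C., and culture supernatants were collected after 66-84 h. Supernatant was mixed with McIlvaine buffer pH 4.8 and MUGal (2 mM stock) in 50 mM citrate, 200 mM KCl, pH 4.6, incubated at 37° C. for 30-180 minutes, then quenched with sodium carbonate.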

[2] = HTP-analysis of supernatants pretreated with acid (MUGal hydrolysis); details: challenge at pH 4.2; activity of the variant/activity of WT GLA (SEQ ID NO: 5); yeast supernatant
Method in brief: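 Supernatants from INVSc1 yeast secreting GLA variants were challenged at 37° C. for 1-3 h in McIlvaine buffer at pH 3.3-4.3. Residual activity was then measured on 4 mM MUGal substrate stock at pH 4.8 with citrate buffer pH 4.3, over 30-180 min at 37° C. Reactions were quenched with sodium carbonate and read by fluorescence (Ex 355/Em 448 nm).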

[3] = HTP-analysis of supernatants pretreated with base (MUGal hydrolysis); details: challenge at pH 7.1; activity of the variant/activity of WT GLA (SEQ ID NO: 5); yeast supernatant
Method in brief: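 GLA variants secreted from yeast INVSc1; culture supernatants pre-incubated with McIlvaine buffer pH 7.0–8.2 or 200 mM bicarbonate pH 9.1–9.7 at 37° C. for 1–18 h. Residual activity: MUGal (4 mM stock) hydrolysis at pH 4.3–4.8, 37° C., 30–180 min, carbonate quench; fluorescence Ex 355/Em 448 nm.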

| Molecule | Relative Activity of GLA Variants After No Challenge (NC) [1] | Relative Activity of GLA Variants After Challenge at pH 4.2 [2] | Relative Activity of GLA Variants After Challenge at pH 7.1 [3] |
| --- | --- | --- | --- |
| 37 (protein, Synthetic Polypeptide sequence of Variant No. 37 of mature Human GLA) LDNGLARTPTMGWLHWERFMCNLDCQEEPDSCISEKLFMEMAELMVSEGWKDAGYEYLCIDDCWMAPQRDSEGRLQADPQRFPHGIRQLANYVHSKGLKLGIYAAVGNKTCAGFPGSFGYYDIDAQTFADWGVDLLKFDGCYCDSLENLADGYKHMSLALNRTGRSIVYSCEWPLYMWPFQKPNYTEIRQYCNHWRNFADIDDSWKSIKSILDWTSFNQERIVDVAGPGGWNDPDMLVIGNFGLSWNQQVTQMALWAIMAAPLFMSNDLRHISPQAKALLQDKDVIAINQDPLGKQGYQLRQGDNFEVWERPLSGLAWAVAMINRQEIGGPRSYTIAVASLGKGVACNPACFITQLLPVKRKLGFYEWTSRLRSHINPTGTVLLQLENTMQMSKDLLL | + (+ = 0.5 to 1.5 relative activity over WT GLA (SEQ ID NO: 5)) | + (+ = 0.5 to 1.5 relative activity over WT GLA (SEQ ID NO: 5)) | + (+ = 0.5 to 1.5 relative activity over WT GLA (SEQ ID NO: 5)) |
| 148 (protein, Synthetic Polypeptide sequence of Variant No. 148 of mature Human GLA) LDNGLARTPTMGWLHWERFMCNLDCQEEPDSCISEKLFMEMAELMVSEGWKDAGYEYLCIDDCWMAPQRDSEGRLQADPQRFPHGIRRLANYVHSKGLKLGIYADVGNKTCAGFPGSFGYYDIDAQTFADWGVDLLKFDGCYCDSLENLADGYKHMSLALNRTGRSIVYSCEWPLYMWPFQKPNYTEIRQYCNHWRNFADIDDSWKSIKSILDWTSFNQERIVDVAGPGGWNDPDMLVIGNFGLSWNQQVTQMALWAIMAAPLFMSNDLRHISPQAKALLQDKDVIAINQDPLGKQGYQLRQGDNFEVWERPLSGLAWAVAMINRQEIGGPRSYTIAVASLGKGVACNPACFITQLLPVKRKLGFYEWTSRLRSHINPTGTVLLQLENTMQMSKDLLL | + (+ = 0.5 to 1.5 relative activity over WT GLA (SEQ ID NO: 5)) | ++ (++ = >1.5 to 2.5 relative activity over WT GLA (SEQ ID NO: 5)) | + (+ = 0.5 to 1.5 relative activity over WT GLA (SEQ ID NO: 5)) |
| 143 (protein, Synthetic Polypeptide sequence of Variant No. 143 of mature Human GLA) LDNGLARTPTMGWLHWERFMCNLDCQEEPDSCISEKLFMEMAELMVSEGWKDAGYEYLCIDDCWMAPQRDSEGRLQADPHRFPHGIRQLANYVHSKGLKLGIYADVGNKTCAGFPGSFGYYDIDAQTFADWGVDLLKFDGCYCDSLENLADGYKHMSLALNRTGRSIVYSCEWPLYMWPFQKPNYTEIRQYCNHWRNFADIDDSWKSIKSILDWTSFNQERIVDVAGPGGWNDPDMLVIGNFGLSWNQQVTQMALWAIMAAPLFMSNDLRHISPQAKALLQDKDVIAINQDPLGKQGYQLRQGDNFEVWERPLSGLAWAVAMINRQEIGGPRSYTIAVASLGKGVACNPACFITQLLPVKRKLGFYEWTSRLRSHINPTGTVLLQLENTMQMSKDLLL | + (+ = 0.5 to 1.5 relative activity over WT GLA (SEQ ID NO: 5)) | + (+ = 0.5 to 1.5 relative activity over WT GLA (SEQ ID NO: 5)) | + (+ = 0.5 to 1.5 relative activity over WT GLA (SEQ ID NO: 5)) |
| 147 (protein, Synthetic Polypeptide sequence of Variant No. 147 of mature Human GLA) LDNGLARTPTMGWLHWERFMCNLDCQEEPDSCISEKLFMEMAELMVSEGWKDAGYEYLCIDDCWMAPQRDSEGRLQADPQRFPHGIRHLANYVHSKGLKLGIYADVGNKTCAGFPGSFGYYDIDAQTFADWGVDLLKFDGCYCDSLENLADGYKHMSLALNRTGRSIVYSCEWPLYMWPFQKPNYTEIRQYCNHWRNFADIDDSWKSIKSILDWTSFNQERIVDVAGPGGWNDPDMLVIGNFGLSWNQQVTQMALWAIMAAPLFMSNDLRHISPQAKALLQDKDVIAINQDPLGKQGYQLRQGDNFEVWERPLSGLAWAVAMINRQEIGGPRSYTIAVASLGKGVACNPACFITQLLPVKRKLGFYEWTSRLRSHINPTGTVLLQLENTMQMSKDLLL | ++ (++ = >1.5 to 2.5 relative activity over WT GLA (SEQ ID NO: 5)) | ++ (++ = >1.5 to 2.5 relative activity over WT GLA (SEQ ID NO: 5)) | ++ (++ = >1.5 to 2.5 relative activity over WT GLA (SEQ ID NO: 5)) |
| 149 (protein, Synthetic Polypeptide sequence of Variant No. 149 of mature Human GLA) LDNGLARTPTMGWLHWERFMCNLDCQEEPDSCISEKLFMEMAELMVSEGWKDAGYEYLCIDDCWMAPQRDSEGRLQADPQRFPHGIRSLANYVHSKGLKLGIYADVGNKTCAGFPGSFGYYDIDAQTFADWGVDLLKFDGCYCDSLENLADGYKHMSLALNRTGRSIVYSCEWPLYMWPFQKPNYTEIRQYCNHWRNFADIDDSWKSIKSILDWTSFNQERIVDVAGPGGWNDPDMLVIGNFGLSWNQQVTQMALWAIMAAPLFMSNDLRHISPQAKALLQDKDVIAINQDPLGKQGYQLRQGDNFEVWERPLSGLAWAVAMINRQEIGGPRSYTIAVASLGKGVACNPACFITQLLPVKRKLGFYEWTSRLRSHINPTGTVLLQLENTMQMSKDLLL | ++ (++ = >1.5 to 2.5 relative activity over WT GLA (SEQ ID NO: 5)) | + (+ = 0.5 to 1.5 relative activity over WT GLA (SEQ ID NO: 5)) | ++ (++ = >1.5 to 2.5 relative activity over WT GLA (SEQ ID NO: 5)) |
| 145 (protein, Synthetic Polypeptide sequence of Variant No. 145 of mature Human GLA) LDNGLARTPTMGWLHWERFMCNLDCQEEPDSCISEKLFMEMAELMVSEGWKDAGYEYLCIDDCWMAPQRDSEGRLQADPQRFPHGIRALANYVHSKGLKLGIYADVGNKTCAGFPGSFGYYDIDAQTFADWGVDLLKFDGCYCDSLENLADGYKHMSLALNRTGRSIVYSCEWPLYMWPFQKPNYTEIRQYCNHWRNFADIDDSWKSIKSILDWTSFNQERIVDVAGPGGWNDPDMLVIGNFGLSWNQQVTQMALWAIMAAPLFMSNDLRHISPQAKALLQDKDVIAINQDPLGKQGYQLRQGDNFEVWERPLSGLAWAVAMINRQEIGGPRSYTIAVASLGKGVACNPACFITQLLPVKRKLGFYEWTSRLRSHINPTGTVLLQLENTMQMSKDLLL | + (+ = 0.5 to 1.5 relative activity over WT GLA (SEQ ID NO: 5)) | + (+ = 0.5 to 1.5 relative activity over WT GLA (SEQ ID NO: 5)) | + (+ = 0.5 to 1.5 relative activity over WT GLA (SEQ ID NO: 5)) |
| 146 (protein, Synthetic Polypeptide sequence of Variant No. 146 of mature Human GLA) LDNGLARTPTMGWLHWERFMCNLDCQEEPDSCISEKLFMEMAELMVSEGWKDAGYEYLCIDDCWMAPQRDSEGRLQADPQRFPHGIRFLANYVHSKGLKLGIYADVGNKTCAGFPGSFGYYDIDAQTFADWGVDLLKFDGCYCDSLENLADGYKHMSLALNRTGRSIVYSCEWPLYMWPFQKPNYTEIRQYCNHWRNFADIDDSWKSIKSILDWTSFNQERIVDVAGPGGWNDPDMLVIGNFGLSWNQQVTQMALWAIMAAPLFMSNDLRHISPQAKALLQDKDVIAINQDPLGKQGYQLRQGDNFEVWERPLSGLAWAVAMINRQEIGGPRSYTIAVASLGKGVACNPACFITQLLPVKRKLGFYEWTSRLRSHINPTGTVLLQLENTMQMSKDLLL | + (+ = 0.5 to 1.5 relative activity over WT GLA (SEQ ID NO: 5)) | + (+ = 0.5 to 1.5 relative activity over WT GLA (SEQ ID NO: 5)) | + (+ = 0.5 to 1.5 relative activity over WT GLA (SEQ ID NO: 5)) |
| 144 (protein, Synthetic Polypeptide sequence of Variant No. 144 of mature Human GLA) LDNGLARTPTMGWLHWERFMCNLDCQEEPDSCISEKLFMEMAELMVSEGWKDAGYEYLCIDDCWMAPQRDSEGRLQADPVRFPHGIRQLANYVHSKGLKLGIYADVGNKTCAGFPGSFGYYDIDAQTFADWGVDLLKFDGCYCDSLENLADGYKHMSLALNRTGRSIVYSCEWPLYMWPFQKPNYTEIRQYCNHWRNFADIDDSWKSIKSILDWTSFNQERIVDVAGPGGWNDPDMLVIGNFGLSWNQQVTQMALWAIMAAPLFMSNDLRHISPQAKALLQDKDVIAINQDPLGKQGYQLRQGDNFEVWERPLSGLAWAVAMINRQEIGGPRSYTIAVASLGKGVACNPACFITQLLPVKRKLGFYEWTSRLRSHINPTGTVLLQLENTMQMSKDLLL | + (+ = 0.5 to 1.5 relative activity over WT GLA (SEQ ID NO: 5)) | ++ (++ = >1.5 to 2.5 relative activity over WT GLA (SEQ ID NO: 5)) | + (+ = 0.5 to 1.5 relative activity over WT GLA (SEQ ID NO: 5)) |
